For experiment [1], the target named is T1, strep-tagged full-length SPA1 (SUPPRESSOR OF PHYA-105 1) (Arabidopsis, UniProt Q9SYX2 1-1029).
T1 construct: 3x Flag was cloned into the SnaBI site of pPIC3.5K SPA1-strep; also called SPA1-strep; wild type SPA1; source: Pichia pastoris GS115, purified (Strep-Tactin Sepharose); not shown: Strep tag, C-terminal, kept
T1 sequence (looked up): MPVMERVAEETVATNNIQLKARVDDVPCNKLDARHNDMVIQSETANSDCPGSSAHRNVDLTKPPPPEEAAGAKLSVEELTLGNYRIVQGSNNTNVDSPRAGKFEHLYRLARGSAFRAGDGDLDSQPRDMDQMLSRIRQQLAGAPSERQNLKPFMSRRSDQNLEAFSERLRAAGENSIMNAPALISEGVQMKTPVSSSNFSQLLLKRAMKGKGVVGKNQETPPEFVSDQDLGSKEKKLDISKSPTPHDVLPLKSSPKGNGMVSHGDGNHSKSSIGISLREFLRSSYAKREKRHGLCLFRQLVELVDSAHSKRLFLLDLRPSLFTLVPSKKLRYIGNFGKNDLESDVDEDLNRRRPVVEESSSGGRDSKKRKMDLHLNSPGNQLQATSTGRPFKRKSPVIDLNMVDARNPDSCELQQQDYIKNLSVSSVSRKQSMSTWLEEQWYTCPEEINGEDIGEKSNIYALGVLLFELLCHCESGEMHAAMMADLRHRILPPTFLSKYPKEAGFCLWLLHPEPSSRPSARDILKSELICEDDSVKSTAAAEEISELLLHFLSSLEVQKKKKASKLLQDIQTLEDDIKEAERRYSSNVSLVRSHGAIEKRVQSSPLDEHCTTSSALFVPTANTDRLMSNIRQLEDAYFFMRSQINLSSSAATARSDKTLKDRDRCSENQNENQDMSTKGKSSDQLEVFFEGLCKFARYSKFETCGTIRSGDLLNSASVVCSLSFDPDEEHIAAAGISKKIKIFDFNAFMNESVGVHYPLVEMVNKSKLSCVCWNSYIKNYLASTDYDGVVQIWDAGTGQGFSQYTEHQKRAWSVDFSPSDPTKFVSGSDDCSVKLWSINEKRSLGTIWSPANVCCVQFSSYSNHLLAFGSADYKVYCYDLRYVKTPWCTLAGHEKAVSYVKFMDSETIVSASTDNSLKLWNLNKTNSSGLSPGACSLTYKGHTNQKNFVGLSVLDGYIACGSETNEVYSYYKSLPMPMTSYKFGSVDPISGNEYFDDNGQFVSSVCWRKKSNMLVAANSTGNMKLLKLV
Put plainly: pull-down; 2 µg GST-PIF1 on GST agarose beads, 1 µg SPA1 or mSPA1; 50 mM Tris pH 7.5, 150 mM NaCl, 1 mM EDTA, 0.1% Tergitol NP-40, 0.5 mM DTT; 2 h at 4 °C; Coomassie staining. Particulars: both partners purified.

In experiment [2] the target is T2, strep-tagged full-length mSPA1 (SPA1 R517E) (Arabidopsis, UniProt Q9SYX2 1-1029, R517E).
T2 construct: SPA1, Arabidopsis, full length, with the kinase-domain point mutation R517E; Same construct as m1 apart from R517E; also called mSPA1-strep; mutant SPA1; source: Pichia pastoris, purified (Strep-Tactin Sepharose); not shown: Strep tag, C-terminal, kept
T2 sequence (looked up): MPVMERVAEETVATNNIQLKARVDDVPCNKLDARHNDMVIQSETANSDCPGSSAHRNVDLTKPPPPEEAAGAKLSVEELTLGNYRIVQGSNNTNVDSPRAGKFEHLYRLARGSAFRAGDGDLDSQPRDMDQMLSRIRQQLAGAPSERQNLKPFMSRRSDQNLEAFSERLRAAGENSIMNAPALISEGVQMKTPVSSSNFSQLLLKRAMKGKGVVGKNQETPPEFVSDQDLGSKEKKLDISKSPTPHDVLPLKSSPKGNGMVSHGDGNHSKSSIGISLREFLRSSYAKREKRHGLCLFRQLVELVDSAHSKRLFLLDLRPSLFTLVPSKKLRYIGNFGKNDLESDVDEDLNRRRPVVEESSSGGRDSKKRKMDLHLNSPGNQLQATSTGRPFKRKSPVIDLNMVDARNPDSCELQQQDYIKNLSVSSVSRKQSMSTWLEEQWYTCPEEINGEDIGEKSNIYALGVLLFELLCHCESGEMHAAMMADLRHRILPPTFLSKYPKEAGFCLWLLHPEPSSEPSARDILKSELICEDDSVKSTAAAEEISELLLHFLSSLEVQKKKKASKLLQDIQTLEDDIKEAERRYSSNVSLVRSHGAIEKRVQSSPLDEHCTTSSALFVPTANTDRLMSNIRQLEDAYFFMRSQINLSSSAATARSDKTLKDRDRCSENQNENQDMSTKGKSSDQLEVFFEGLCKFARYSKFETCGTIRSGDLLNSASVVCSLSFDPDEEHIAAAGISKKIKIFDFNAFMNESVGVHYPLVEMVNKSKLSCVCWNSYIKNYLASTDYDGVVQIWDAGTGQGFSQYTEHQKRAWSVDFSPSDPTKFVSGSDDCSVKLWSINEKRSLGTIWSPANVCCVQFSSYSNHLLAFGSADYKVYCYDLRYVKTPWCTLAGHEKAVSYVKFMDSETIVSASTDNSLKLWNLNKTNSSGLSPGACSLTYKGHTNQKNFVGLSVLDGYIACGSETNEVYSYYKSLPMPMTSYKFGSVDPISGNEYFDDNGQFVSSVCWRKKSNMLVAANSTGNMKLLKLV
The experiment is described as above. The settings on record: both partners purified.

B1: GST-PIF1-strep (natural protein, Arabidopsis, UniProt Q8GZM7 1-478, looked up)
chain: MHHFVPDFDTDDDYVNNHNSSLNHLPRKSITTMGEDDDLMELLWQNGQVVVQNQRLHTKKPSSSPPKLLPSMDPQQQPSSDQNLFIQEDEMTSWLHYPLRDDDFCSDLLFSAAPTATATATVSQVTAARPPVSSTNESRPPVRNFMNFSRLRGDFNNGRGGESGPLLSKAVVRESTQVSPSATPSAAASESGLTRRTDGTDSSAVAGGGAYNRKGKAVAMTAPAIEITGTSSSVVSKSEIEPEKTNVDDRKRKEREATTTDETESRSEETKQARVSTTSTKRSRAAEVHNLSERKRRDRINERMKALQELIPRCNKSDKASMLDEAIEYMKSLQLQIQMMSMGCGMMPMMYPGMQQYMPHMAMGMGMNQPIPPPSFMPFPNMLAAQRPLPTQTHMAGSGPQYPVHASDPSRVFVPNQQYDPTSGQPQYPAGYTDPYQQFRGLHPTQPPQFQNQATSYPSSSRVSSSKESEDHGNHTTG
notes: source: E. coli BL21(DE3), purified (Strep-Tactin Sepharose); not shown: GST, N-terminal, kept; Strep tag, C-terminal, kept
On to B1, for which the binding result in experiment [1] and in experiment [2] was “binds” throughout.

Values taken from PMC6746701, “A phyB-PIF1-SPA1 kinase regulatory complex promotes photomorphogenesis in Arabidopsis” (Nature Communications, 2019).
